# Source: the supplement of paper PMC11811203
# B1: THAP1; numbered along this chain (parent)
# chain: MVQSCSAYGCKNRYDKDKPVSFHKFPLTRPSLCKEWEAAVRRKNFKPTKYSSICSEHFTPDCFKRECNNKLLKENAVPTIFLCTEPHDKKEDLLEPQEQLPPPPLPPPVSQVDAAIGLLMPPLQTPVNLSVFCDHNYTVEDTMHQRKRIHQLEQQVEKLRKKLKTAQQRCRRQERQLEKLKEVVHFQKEKDDVSERGYVILPNDYFEIVEVPA
# Variants of: B1
# Assay: THAP1 transcriptional activity (GFP+/GFP- enrichment relative to wild-type constructs) (ratio to WT); higher = more THAP1 activity (PSMB5 reporter activation)
# Settings: with PSMB5 promoter-GFP reporter
# How it was run: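 A lentiviral site-saturation library covering residues 2–213 of human THAP1, with each position changed to all 20 amino acids, was transduced in duplicate at MOI ~0.3 into THAP1-knockout HEK-293T cells with mClover3 knocked in at endogenous PSMB5. Five days later, BFP+ cells were sorted into GFP-dim and GFP-bright bins and variants were counted by Illumina sequencing of genomic DNA amplicons. Activity is the bright/dim read fold change averaged over replicates and divided by the mean of wild-type synonymous constructs.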
row,Variant,THAP1 transcriptional activity
1,Q168P,0.186
2,R171S,0.173
3,R171T,0.172
4,D17F,0.706
5,R13Y,0.0688
6,C67V,0.777
7,K162Y,0.188
8,K162P,0.15
9,Y205S,1.17
10,V131D,0.241
11,S55Y,0.109
12,N136R,0.364
13,L119N,1.09
14,A39T,0.26
15,A39M,0.752
16,E35S,0.44
17,K11I,0.265
18,F81A,0.367
19,L159N,0.294
20,E174Q,1.26
21,E174H,0.817
22,A7S,0.122
23,A7D,0.0976
24,P202A,1.15

row,Variant,THAP1 transcriptional activity
1,K90P,1.06
2,I80D,0.29
3,R41W,0.182
4,R41I,0.146
5,L82G,1.31
6,L82N,1.88
7,L82H,1.27
8,K158W,0.457
9,V184K,0.901
10,V2I,0.157
11,P19M,0.208
12,P19H,0.266
13,E37Y,0.252
14,E37H,0.454
15,L123H,1.24
16,S194G,1.35
17,N75W,0.844
18,C62I,0.09
19,C62Q,0.74
20,C62M,0.591
21,Y14P,0.164
22,F63M,0.089
23,E98M,0.62
24,S4H,0.111

row,Variant,THAP1 transcriptional activity
1,S4C,0.233
2,L180I,0.806
3,L180S,0.482
4,L72C,0.148
5,N128A,0.714
6,N128S,0.395
7,N203R,0.497
8,Q111L,0.357
9,M120H,0.611
10,M120N,1.38
11,K181D,0.296
12,R172Y,0.252
13,R172E,0.34
14,R172I,0.34
15,P212R,0.594
16,D61N,0.472
17,D61W,0.145
18,K16D,0.0673
19,H57D,0.0578
20,R42S,0.158
21,R42D,0.0738
22,R42P,0.0977
23,S52I,0.379
24,S21M,0.182

row,Variant,THAP1 transcriptional activity
1,E66P,0.346
2,Q97N,0.877
3,Q145S,0.592
4,Q145M,0.767
5,G9H,0.283
6,R65H,0.327
7,Q154W,0.539
8,L129W,1.7
9,Q167K,0.613
10,V193L,1.21
11,K188H,0.646
12,P30A,0.476
13,L105M,1.81
14,L105K,1.34
15,L105T,1.56
16,Y8W,1.08
17,Y8R,0.374
18,P108C,0.724
19,P108Y,0.559
20,Q187S,1.45
21,Q187H,0.853
22,K34T,0.337
23,K34A,0.749
24,V40G,0.0879

row,Variant,THAP1 transcriptional activity
1,P47S,0.14
2,P47H,0.106
3,K89C,1.4
4,K89F,1.17
5,I149D,0.218
6,A114D,1.33
7,R175L,0.692
8,R175K,1.17
9,P60M,0.374
10,P121I,0.299
11,P121C,0.259
12,D134P,0.296
13,D134W,0.177
14,L27D,0.111
15,P86K,0.623
16,T165W,0.39
17,T165Q,0.517
18,F206W,1.27
19,E140Y,1.16
20,K179L,0.546
21,R148C,0.26
22,D15W,0.122
23,Q99D,0.731
24,Q99K,1.5

row,Variant,THAP1 transcriptional activity
1,K73I,0.142
2,K73S,0.154
3,L71C,1.42
4,V209E,0.612
5,L177S,0.206
6,T142N,0.392
7,T142G,0.864
8,Q124T,0.351
9,L163K,0.168
10,K43V,0.726
11,K43I,0.615
12,E182A,0.871
13,D141P,0.986
14,V20Q,0.139
15,E153R,0.491
16,I53P,0.0932
17,I53G,0.0813
18,E195R,1.03
19,K49V,0.257
20,A115I,0.237
21,L201I,0.905
22,L201H,0.804
23,H144T,0.4
24,P78T,0.283

row,Variant,THAP1 transcriptional activity
1,P78G,0.102
2,V109A,1.33
3,N69W,0.0798
4,H185M,0.723
5,F186H,1.25
6,F186R,1.31
7,R160G,0.224
8,K46Q,0.581
9,K46I,0.465
10,P107I,0.533
11,P107S,1.14
12,Y198D,0.763
13,C33H,0.173
14,C33W,0.11
15,P103D,1.44
16,P103Y,0.902
17,V127R,1.19
18,V127T,0.875
19,D92M,0.739
20,N12K,0.125
21,P96L,1.58
22,G117W,0.261
23,G117H,0.396
